These results are taken from patent publication US20250381289A1 (Genmab, published 2025).

Assay [1] concerns the target T1, cMET on EGFR and cMET co-expressed tumor cell lines (UniProt P08581 25-1390, limits assumed).
T1 construct: whole, on cells
The assay is described as follows: flow cytometry, MKN-45 cells.

The target of assay [2] is T2, EGFR on EGFR and cMET co-expressed tumor cell lines (UniProt P00533 25-1210, limits assumed).
T2 construct: whole, on cells
Description: flow cytometry, EBC-1 cells (co-express EGFR and cMET; both arms contribute). A general note: In flow cytometry, cells or beads pass a laser one at a time.

Assay [3] concerns the target T1, cMET on EGFR and cMET co-expressed …. The description is as above.
The target of assay [4] is T2, EGFR on EGFR and cMET co-expressed …. The assay is described as follows: flow cytometry, SNU-5 cells (co-express EGFR and cMET; both arms contribute).
The target in assay [5] is T1, cMET on EGFR and cMET co-expressed …. The assay is described as above.

T1 sequence (P08581 25-1390 limits assumed): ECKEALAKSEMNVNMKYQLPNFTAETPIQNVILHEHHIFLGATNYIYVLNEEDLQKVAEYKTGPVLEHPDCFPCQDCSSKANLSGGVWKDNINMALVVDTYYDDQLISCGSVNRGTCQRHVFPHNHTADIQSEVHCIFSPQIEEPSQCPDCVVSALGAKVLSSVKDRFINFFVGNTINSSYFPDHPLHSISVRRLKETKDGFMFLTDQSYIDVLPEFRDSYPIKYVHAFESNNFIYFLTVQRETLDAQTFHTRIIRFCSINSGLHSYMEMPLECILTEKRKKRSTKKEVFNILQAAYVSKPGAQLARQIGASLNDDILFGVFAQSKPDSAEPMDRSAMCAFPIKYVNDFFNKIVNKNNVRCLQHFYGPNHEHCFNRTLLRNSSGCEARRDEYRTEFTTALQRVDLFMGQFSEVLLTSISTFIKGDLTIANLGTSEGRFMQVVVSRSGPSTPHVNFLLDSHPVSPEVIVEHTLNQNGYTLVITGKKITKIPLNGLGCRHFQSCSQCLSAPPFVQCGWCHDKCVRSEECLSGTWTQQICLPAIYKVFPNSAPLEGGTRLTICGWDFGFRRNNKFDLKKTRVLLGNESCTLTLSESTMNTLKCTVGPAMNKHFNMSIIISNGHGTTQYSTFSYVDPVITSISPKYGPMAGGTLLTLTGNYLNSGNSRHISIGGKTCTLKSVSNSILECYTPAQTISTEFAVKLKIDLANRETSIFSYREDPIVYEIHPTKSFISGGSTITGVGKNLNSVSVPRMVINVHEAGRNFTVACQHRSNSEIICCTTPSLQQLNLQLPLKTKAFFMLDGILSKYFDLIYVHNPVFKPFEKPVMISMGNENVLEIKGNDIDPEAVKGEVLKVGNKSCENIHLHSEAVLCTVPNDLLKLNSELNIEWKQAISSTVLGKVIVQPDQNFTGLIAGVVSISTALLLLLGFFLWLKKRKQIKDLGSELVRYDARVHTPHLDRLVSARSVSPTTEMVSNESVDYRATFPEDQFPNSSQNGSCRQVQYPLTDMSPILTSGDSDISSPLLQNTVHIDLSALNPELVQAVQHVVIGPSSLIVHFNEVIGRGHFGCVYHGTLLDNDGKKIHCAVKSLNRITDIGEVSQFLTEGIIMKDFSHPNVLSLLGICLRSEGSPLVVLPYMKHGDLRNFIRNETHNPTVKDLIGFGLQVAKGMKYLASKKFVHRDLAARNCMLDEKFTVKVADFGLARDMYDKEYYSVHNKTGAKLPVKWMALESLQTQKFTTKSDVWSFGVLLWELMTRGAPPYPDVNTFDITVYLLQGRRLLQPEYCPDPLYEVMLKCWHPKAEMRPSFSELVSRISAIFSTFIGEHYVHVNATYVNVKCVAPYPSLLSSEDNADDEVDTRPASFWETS

B1: ABF-46 (antibody, V domains shown)
VH: EVKLVESGGGLVQPGGSLRLSCATSGFTFTDYYMSWVRQPPGKALEWLGFIRNKANGYTTEYSASVKGRFTISRDNSQSILYLQMDTLRAEDSATYYCARDNWFAYWGQGTLVTVSA
VL: DILMTQSPSSLTVSAGEKVTMSCKSSQSLLASGNQNNYLAWHQQKPGRSPKMLIIWASTRVSGVPDRFIGSGSGTDFTLTINSVQAEDLAVYYCQQSYSAPLTFGAGTKLELK
Consider B1, for which, in assay [1], the binding result is on record as “binds”.

B2: Nova-5097 (antibody, V domains shown)
VH: QVQLVQSGAEVKKPGSSVKVSCKASGGTFSSYAISWVRQAPGQGLEWMGGIDPFGTANYAQKFQGRVTITADESTSTAYMELSSLRSEDTAVYYCARVYQDVWGQGTLVTVSS
VL: DIVMTQSPDSLAVSLGERATINCRSSQSILYGINNNFLGWYQQKPGQPPKLLIYWASTRESGVPDRFSGSGSGTDFTLTISSLQAEDVAVYYCQQYAFGWTFGQGTKVEIK
notes: Parent cMET mAb
As for B2, in assay [1], the binding result is “binds”.

B3: Nova-5098 (antibody, V domains shown)
VH: QVQLVQSGAEVKKPGSSVKVSCKASGGTFSSYAISWVRQAPGQGLEWMGGIDPFGTANYAQKFQGRVTITADESTSTAYMELSSLRSEDTAVYYCARVYQDVWGQGTLVTVSS
VL: DIVMTQSPDSLAVSLGERATINCRSSQSILYGINNNFLGWYQQKPGQPPKLLIYWASTRESGVPDRFSGSGSGTDFTLTISSLQAEDVAVYYCLQYSDEPWTFGQGTKVEIK
notes: Parent cMET mAb
As to B3, the binding result in assay [1] is recorded as “binds”.

B4: Nova-5185 (antibody, V domains shown)
VH: QVQLVQSGAEVKKPGSSVKVSCKASGGTFSSYAISWVRQAPGQGLEWMGGIDPIMGTEYAQKFQGRVTITADESTSTAYMELSSLRSEDTAVYYCARVYQDVWGQGTLVTVSS
VL: DIVMTQSPDSLAVSLGERATINCRSSQSILYGINNNFLGWYQQKPGQPPKLLIYWASTRESGVPDRFSGSGSGTDFTLTISSLQAEDVAVYYCQQYAYEPNTFGQGTKVEIK
notes: Parent cMET mAb
Consider B4, for which the binding result in assay [1] is listed as “binds”.

B5: AZD9592 (bispecific antibody, human IgG1, kappa, lambda)
anti EGFR heavy chain: QVQLVQSGAEVKKPGSSVKVSCKASGGTFSDNDFSWVRQAPGQGLEWMGAIVAVFRTETYAQKFQDRVKITADISTRTTYMELSSLRSEDTAVYYCARRLMSAISGPGAPLLMWGQGTLVTVSSASTKGPSVCPLAPSSKSTSGGTAALGCLVKDYFPEPVTVSWNSGALTSGVHTFPAVLQSSGLYSLSSVVTVPSSSLGTQTYICNVNHKPSNTKVDKRVEPKSVDKTHTCPPCPAPEFEGGPSVFLFPPKPKDTLMISRTPEVTCVVVDVSHEDPEVKFNWYVDGVEVHNAKTKPREEQYNSTYRVVSVLTVLHQDWLNGKEYKCKVSNKALPASIEKTISKAKGQPREPQVYTLPPCREEMTKNQVSLWCLVKGFYPSDIAVEWESNGQPENNYKTTPPVLDSDGSFFLYSKLTVDKSRWQQGNVFSCSVMHEALHNHYTQKSLSLSPGK
anti EGFR light chain: QSALTQPRSVSGSPGQSVTISCTGTSSDVGGYNYVSWYQQHPGKAPKLMIYDVSKRPSGVPDRFSGSKSGNTASLTISGLQAEDEADYYCSSYTSSDTLEIFGGGTKLTVLGQPKAAPSVTLFPPCSEELQANKATLVCLISDFYPGAVTVAWKADSSPVKAGVETTTPSKQSNNKYAASSYLSLTPEQWKSHRSYSCQVTHEGSTVEKTVAPTEVS
anti cMET heavy chain: QVQLVQSGAEVKKPGASVKVSCKASGYTFTDYYIHWVRQATGQGLEWMGWMNPNSGNTGYAQKFQGRVTMTRDTSISTAYMELSSLRSEDTAVYYCARGQGYTHSWGQGTMVTVSSASTKGPSVFPLAPSSKSTSGGTAALGCLVKDYFPEPVTVSWNSGALTSGVHTFPAVLQSSGLYSLSSVVTVPSSSLGTQTYICNVNHKPSNTKVDKRVEPKSCDKTHTCPPCPAPEFEGGPSVFLFPPKPKDTLMISRTPEVTCVVVDVSHEDPEVKFNWYVDGVEVHNAKTKPREEQYNSTYRVVSVLTVLHQDWLNGKEYKCKVSNKALPASIEKTISKAKGQPREPQVCTLPPSREEMTKNQVSLSCAVKGFYPSDIAVEWESNGQPENNYKTTPPVLDSDGSFFLVSKLTVDKSRWQQGNVFSCSVMHEALHNHYTQKSLSLSPGK
anti cMET light chain: DIQMTQSPSTLSASVGDRVTITCRASEGIYHWLAWYQQKPGKAPKLLIYKASSLASGVPSRFSGSGSGTEFTLTISSLQPDDFATYYCQQYSNYPPTFGGGTKLEIKRTVAAPSVFIFPPSDEQLKSGTASVVCLLNNFYPREAKVQWKVDNALQSGNSQESVTEQDSKDSTYSLSSTLTLSKADYEKHKVYACEVTHQGLSSPVTKSFNRGEC
As usually defined, the EC50 (read off the curve) is the concentration that produces a half-maximal response. With B5, the “EC50 (read off the curve)” value is approximately 0.9 nM in assay [2], approximately 0.9 nM in assay [3], approximately 2 nM in assay [4] and approximately 2 nM in assay [5].
